Test results as given in article PMC6239281, “Same but different: Comparison of two system-specific molecular chaperones for the maturation of formate dehydrogenases” (PLoS ONE, 2018).
Residue numbers refer to the chain shown, from its start. Names and notes keep the numbering of the source.

Experiments:
[1] = target: Rhodobacter capsulatus FdsC-C107A (R. capsulatus); assay: SEC; size exclusion chromatography of the Ni-NTA purified chaperones alone; data not shown
[2] = target: Rhodobacter capsulatus FdsC-C104A/C107A (R. capsulatus); assay: as above
[3] = target: Rhodobacter capsulatus FdsC (R. capsulatus); assay: as above
[4] = target: Rhodobacter capsulatus FdsC-C104A (R. capsulatus); assay: as above
[5] = target: the molecule itself; assay: as above
[6] = target: T1, Escherichia coli L-cysteine desulfurase IscS (E. coli, UniProt P0A6B7 1-404); assay: SEC; 20 μM IscS mixed with 40 μM FdhD or FdsC (or double cysteine variant), 30 min at room temperature, Superdex 200 (Increase), 100 mM potassium phosphate pH 8.0 (legend: with 100 mM NaCl, 10 mM β-mercaptoethanol), 280 nm; fractions on 15% SDS-PAGE; conditions: both partners purified
T1 construct: IscS, L-cysteine desulfurase of Escherichia coli; iscS gene cloned into NcoI/BamHI sites of pET15b (pSL209); also called E. coli IscS; source: recombinant (plasmid pSL209), expressed and purified as described previously [33, 46]
T1 sequence (P0A6B7 whole entry): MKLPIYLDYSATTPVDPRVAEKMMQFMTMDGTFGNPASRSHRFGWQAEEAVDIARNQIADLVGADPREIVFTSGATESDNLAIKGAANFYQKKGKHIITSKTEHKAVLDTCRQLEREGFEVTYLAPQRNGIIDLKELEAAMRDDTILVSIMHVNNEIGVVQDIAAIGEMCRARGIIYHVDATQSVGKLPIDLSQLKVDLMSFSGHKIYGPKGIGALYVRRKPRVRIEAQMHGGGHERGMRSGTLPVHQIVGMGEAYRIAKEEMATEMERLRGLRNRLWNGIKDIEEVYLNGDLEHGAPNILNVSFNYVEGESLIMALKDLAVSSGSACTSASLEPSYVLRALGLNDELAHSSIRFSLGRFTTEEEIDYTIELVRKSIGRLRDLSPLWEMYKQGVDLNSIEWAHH

Rhodobacter capsulatus FdsC-C107A (natural protein)
stoichiometry N [1]: 2

Rhodobacter capsulatus FdsC-C104A/C107A (natural protein)
stoichiometry N [2]: 2

Rhodobacter capsulatus FdsC (natural protein)
stoichiometry N [3]: 2

Rhodobacter capsulatus FdsC-C104A (natural protein)
stoichiometry N [4]: 2

B1: Escherichia coli FdhD (natural protein, E. coli)
chain: MKKTQRKEIENVTNITGVRQIELWRRDDLQHPRLDEVAEEVPVALVYNGISHVVMMASPKDLEYFALGFSLSEGIIESPRDIFGMDVVPSCNGLEVQIELSSRRFMGLKERRRALAGRTGCGVCGVEQLNDIGKPVQPLPFTQTFDLNKLDDALRHLNDFQPVGQLTGCTHAAAWMLPSGELVGGHEDVGRHVALDKLLGRRSQEGESWQQGAVLVSSRASYEMVQKSAMCGVEILFAVSAATTLAVEVAERCNLTLVGFCKPGRATVYTHPQRLSN
notes: FdhD, FDH-specific chaperone of Escherichia coli; fdhD gene in pTrcHis (pNB10); His6-tagged FdhD has a molecular mass of 32.7 kDa; also called FdhD wild-type; FdhD WT; source: E. coli ΔfdhD strain (plasmid pNB10), purified (Ni-NTA)
stoichiometry N [5]: 2 | binding result [6]: binds

B2: Escherichia coli FdhD-C121A/C124A (natural protein, E. coli)
chain: B1 chain with C121A, C124A
notes: FdhD of Escherichia coli with C121A and C124A; fdhD^C121A/C124A gene in pTrcHis (pNB13); Made from pNB10 by site-directed mutagenesis; also called FdhD-C121/C124A; double variant; source: E. coli ΔfdhD strain (plasmid pNB13), purified (Ni-NTA)
stoichiometry N [5]: 2 | binding result [6]: binds

B3: Escherichia coli FdhD-C121A (natural protein, E. coli)
chain: B1 chain with C121A
notes: FdhD of Escherichia coli with C121A; fdhD^C121A gene in pTrcHis (pNB11); Made from pNB10 by site-directed mutagenesis; also called His6-FdhD^C121A; source: E. coli ΔfdhD strain (plasmid pNB11), purified (Ni-NTA)
stoichiometry N [5]: 2

B4: Escherichia coli FdhD-C124A (natural protein, E. coli)
chain: B1 chain with C124A
notes: FdhD of Escherichia coli with C124A; fdhD^C124A gene in pTrcHis (pNB12); Made from pNB10 by site-directed mutagenesis; also called His6-FdhD^C124A; source: E. coli ΔfdhD strain (plasmid pNB12), purified (Ni-NTA)
stoichiometry N [5]: 2
